Measurements as given in patent US20190185557 (published 2019).
Changes are numbered by the printed parent chain. Each block holds one binder with its values, some of them ahead of it.

How the values were obtained:
[1] = molecular target: T1, FcγRIIaH (human, UniProt P12318); experiment: SPR
T1 chain: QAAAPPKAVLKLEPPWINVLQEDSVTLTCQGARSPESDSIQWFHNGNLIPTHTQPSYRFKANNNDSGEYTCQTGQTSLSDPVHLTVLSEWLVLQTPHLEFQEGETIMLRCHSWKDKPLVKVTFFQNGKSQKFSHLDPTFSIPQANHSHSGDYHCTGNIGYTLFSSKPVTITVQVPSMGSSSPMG

[2] = molecular target: T2, FcγRIa (human, UniProt P12314); experiment: SPR
T2 chain: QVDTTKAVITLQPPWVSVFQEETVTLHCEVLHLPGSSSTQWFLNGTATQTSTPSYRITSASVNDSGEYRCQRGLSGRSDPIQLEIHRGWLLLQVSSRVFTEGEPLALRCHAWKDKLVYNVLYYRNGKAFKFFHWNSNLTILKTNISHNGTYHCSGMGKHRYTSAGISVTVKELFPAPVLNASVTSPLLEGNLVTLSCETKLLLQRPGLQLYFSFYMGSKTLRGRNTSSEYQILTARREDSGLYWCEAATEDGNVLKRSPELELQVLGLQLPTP

- Kd [1]: 1800 nM
B1: IL6R-BP507/IL6R-L (antibody)
chain 1: QVQLQESGPGLVKPSETLSLTCAVSGHSISHDHAWSWVRQPPGEGLEWIGFISYSGITNYNPSLQGRVTISRDNSKNTLYLQMNSLRAEDTAVYYCARSLARTTAMDYWGEGTLVTVSSASTKGPSVFPLAPSSKSTSGGTAALGCLVKDYFPEPVTVSWNSGALTSGVHTFPAVLQSSGLYSLSSVVTVPSSSLGTQTYICNVNHKPSNTKVDKKVEPKSCDKTHTCPPCPAPDLLGDDSVFLFPPKPKDTLMISRTPEVTCVVIDVAEEDGPVKFNWYVDGVEVHNAKTKPREEQYNSTYRVVSVLTVLHQDWLNGKEYKCKVSNKALPRPIEKTISKAKGQPREPQVYTLPPSRDELTKNQVSLTCLVKGFYPSDIAVEWESNGQPENNYKTTPPVLDSDGSFFLYSKLTVDKSRWQQGNVFSCSVMHEALHNHYTQESLSLSP
chain 2: not shown

- Kd [1]: 2400 nM
B2: IL6R-BP490/IL6R-L (antibody)
chain 1: B1 chain 1 with D235E, P274E
chain 2: not shown

- Kd [1]: 2500 nM
B3: IL6R-BP506/IL6R-L (antibody)
chain 1: B1 chain 1 with Y298D
chain 2: not shown

- Kd [1]: 1500 nM
B4: IL6R-BP445/IL6R-L (antibody)
chain 1: B1 chain 1 with P274E
chain 2: not shown

- Kd [2]: 13 nM
B5: IL6R-BP480/IL6R-L (antibody)
chain 1: B1 chain 1 with I266V, V268L, A269S, E271D, P274E, R332A
chain 2: not shown
